Changes are numbered by the printed parent chain. Read-outs that look alike come from different tables or passages of the source. Values belong to the binder of their own block, whether it stands above or below them.
Columns and labels:
Experiment in all cases: SPR
[1] = molecular target: T1, FcgRIIa H (human, UniProt P12318)
T1 chain: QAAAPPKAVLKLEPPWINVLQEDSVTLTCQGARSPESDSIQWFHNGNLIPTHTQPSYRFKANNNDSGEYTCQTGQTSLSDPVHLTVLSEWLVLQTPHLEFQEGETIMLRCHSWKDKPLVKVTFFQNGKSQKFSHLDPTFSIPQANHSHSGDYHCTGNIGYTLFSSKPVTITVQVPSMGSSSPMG

[2] = molecular target: T2, FcgRIIIa V (human, UniProt P08637)
T2 sequence (P08637 17-208 F176V): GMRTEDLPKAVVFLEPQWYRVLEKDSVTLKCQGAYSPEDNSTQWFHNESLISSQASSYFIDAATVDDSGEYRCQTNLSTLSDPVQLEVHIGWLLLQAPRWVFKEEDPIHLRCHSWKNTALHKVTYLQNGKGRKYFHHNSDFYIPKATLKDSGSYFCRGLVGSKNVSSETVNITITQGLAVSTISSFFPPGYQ

[3] = molecular target: T3, FcgRIIIa F (human, UniProt P08637)
T3 sequence (P08637 17-208): as the sequence (P08637 17-208 F176V) above, with V160F counted along it

[4] = molecular target: T4, FcgRIIa R (human, UniProt P12318)
T4 chain: T1 chain with H134R

[5] = molecular target: T5, FcgRIIb (human, UniProt P31994)
T5 chain: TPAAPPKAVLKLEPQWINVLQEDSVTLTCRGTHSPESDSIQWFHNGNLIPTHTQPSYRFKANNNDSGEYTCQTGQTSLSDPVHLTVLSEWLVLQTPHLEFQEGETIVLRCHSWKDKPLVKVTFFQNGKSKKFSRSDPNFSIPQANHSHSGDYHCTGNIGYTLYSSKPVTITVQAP

[6] = molecular target: T6, FcgRIa (human, UniProt P12314)
T6 chain: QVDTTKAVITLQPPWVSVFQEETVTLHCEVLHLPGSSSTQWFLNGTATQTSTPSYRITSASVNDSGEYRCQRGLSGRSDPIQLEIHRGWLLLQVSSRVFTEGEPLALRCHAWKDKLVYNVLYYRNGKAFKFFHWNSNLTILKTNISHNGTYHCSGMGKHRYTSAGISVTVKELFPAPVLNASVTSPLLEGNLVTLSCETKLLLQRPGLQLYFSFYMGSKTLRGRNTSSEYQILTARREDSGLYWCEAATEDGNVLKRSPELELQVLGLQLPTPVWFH

[7] = molecular target: T5, FcgRIIb
[8] = molecular target: T2, FcgRIIIa V; remark: listed apart in the source
[9] = molecular target: T3, FcgRIIIa F; remark: listed apart in the source
[10] = molecular target: T6, FcgRIa
[11] = molecular target: T1, FcgRIIa H
[12] = molecular target: T4, FcgRIIa R

B3: H240-FA030/H240-FB065/L73-k0 (antibody)
chain 1: QDQLVQSGAEVKKPGASVKVSCKASGFNIKDTYIQWVRQAPGQGLEWMGRIDPLRKQTKYREKFEGRVTITADTSTNTAYMELSSLRSEDTAVYYCVRSGREFDYWGQGTLVTVSSASTKGPSVFPLAPSSKSTSGGTAALGCLVKDYFPEPVTVSWNSGALTSGVHTFPAVLQSSGLYSLSSVVTVPSSSLGTKTYTCNVNHKPSNTKVDKKVEPKSCDKTHTCPPCPAPEYYWGPSVFLFPPKPKDTLMISRTPEVTCVVVDVSDEEPKVKFNWYVDGVEVHNAKTKPREEQYNATYRVVSVLTVLHQDWLNGKEYKCKVSNKALPAPIEKTISKAKGQPREPQVYTLPPSRKEMTKNQVSLTCLVKGFYPSDIAVEWESNGQPENNYKTTPPVLDSDGSFFLYSKLTVDKSRWQQGNVFSCSVMHEALHNRYTQKSLSLSP
chain 2: QDQLVQSGAEVKKPGASVKVSCKASGFNIKDTYIQWVRQAPGQGLEWMGRIDPLRKQTKYREKFEGRVTITADTSTNTAYMELSSLRSEDTAVYYCVRSGREFDYWGQGTLVTVSSASTKGPSVFPLAPSSKSTSESTAALGCLVKDYFPEPVTVSWNSGALTSGVHTFPAVLQSSGLYSLSSVVTVPSSNFGTQTYTCNVDHKPSNTKVDKTVEPKSCDKTHTCPPCPAPELLGGPSVFLFPPKPKDTLMISRTPEVTCVVVDVSHEEPEVQFNWYVDGVEVHNAETKPREEQYNSTYRVVSVLTVLHQDWLNGKEYKCKVSNDALPMPIEETISKAKGQPREPQVYTLPPSREEMTKNQVSLTCLVKGFYPSDIAVEWESNGQPENNYKTTPPVLDSDGSFFLYSKLTVDKSRWQQGNVFSCSVMHEALHNHYTQESLSLSP
chain 3: DIQMTQSPSSLSASVGDRVTITCRASQDIHKYIAWYQQKPGQAPRLLIQYTSTLQPGVPSRFSGSGSGTDYTFTISSLQPEDIATYYCLQYEQLRTFGGGTKVEIKRTVAAPSVFIFPPSDEQLKSGTASVVCLLNNFYPREAKVQWKVDNALQSGNSQESVTEQDSKDSTYSLSSTLTLSKADYEKHKVYACEVTHQGLSSPVTKSFNRGEC
Kd [1]: 99 nM | Kd [2]: 1.1 nM | Kd [3]: 4.6 nM | Kd [4]: 340 nM | Kd [5]: 2400 nM | Kd [6]: 0.1 nM

B7: H240-FA009/H240-FB017/L73-k0 (antibody)
chain 1: B3 chain 1 with T198I, K271E
chain 2: B3 chain 2 with S137G, N191S, F192L, T198I, T213K, E287K
chain 3: B3 chain 3
Kd [1]: 61 nM | Kd [2]: 0.84 nM | Kd [3]: 3 nM | Kd [4]: 230 nM | Kd [5]: 1400 nM | Kd [6]: 0.11 nM

B8: H240-FA009/H240-FB021/L73-k0 (antibody)
chain 1: B3 chain 1 with T198I, K271E
chain 2: B3 chain 2 with E136G, S137G, N191S, F192L, T198I, D202N, T213K
chain 3: B3 chain 3
Kd [1]: 70 nM | Kd [2]: 0.78 nM | Kd [3]: 3.7 nM | Kd [4]: 280 nM | Kd [5]: 2200 nM | Kd [6]: 0.051 nM

B9: H240-Kn184/H240-Hl068/L73-k0 (antibody)
chain 1: QDQLVQSGAEVKKPGASVKVSCKASGFNIKDTYIQWVRQAPGQGLEWMGRIDPLRKQTKYREKFEGRVTITADTSTNTAYMELSSLRSEDTAVYYCVRSGREFDYWGQGTLVTVSSASTKGPSVFPLAPSSKSTSGGTAALGCLVKDYFPEPVTVSWNSGALTSGVHTFPAVLQSSGLYSLSSVVTVPSSSLGTQTYICNVNHKPSNTKVDKKVEPKSCDKTHTCPPCPAPEEYWGPMVFLFPPKPKDTLMISRTPEVTCVVVDVSDEDPEVKFNWYVDGVEVHNAKTKPREEQYNATYRVVSVLTVLHQDWLNGKEYKCKVSNKDLPAPIEKTISKAKGQPREPQVCTLPPSRDELTKNQVSLWCLVKGFYPSDIAVEWESNGQPENNYKTTPPVLDSDGSFFLYSKLTVDKSRWQQGNVFSCSVMHEALHNHYTQKSLSLSP
chain 2: QDQLVQSGAEVKKPGASVKVSCKASGFNIKDTYIQWVRQAPGQGLEWMGRIDPLRKQTKYREKFEGRVTITADTSTNTAYMELSSLRSEDTAVYYCVRSGREFDYWGQGTLVTVSSASTKGPSVFPLAPSSKSTSGGTAALGCLVKDYFPEPVTVSWNSGALTSGVHTFPAVLQSSGLYSLSSVVTVPSSSLGTQTYICNVNHKPSNTKVDKKVEPKSCDKTHTCPPCPAPELLGGPSVFLFPPKPKDTLMISRTPEVTCVVVDVSHEEPEVKFNWYVDGVEVHNAKTKPREEQYNSTYRVVSVLTVLHQDWLNGKEYKCKVSNDALPKPIEETISKAKGQPREPQVYTLPPSRCELTKNQVSLSCAVKGFYPSDIAVEWESNGQPENNYKTTPPVLDSDGSFFLVSKLTVDKSRWQQGNVFSCSVMHEALHNHYTQKSLSLSP
chain 3: B3 chain 3
Kd [7]: 150 nM | Kd [8]: 0.34 nM | Kd [9]: 2.2 nM | Kd [10]: 0.16 nM | Kd [11]: 70 nM | Kd [12]: 27 nM

Next, values leading:

Kd [1]: 84 nM | Kd [2]: 1.3 nM | Kd [3]: 4.2 nM | Kd [4]: 330 nM | Kd [5]: 1800 nM | Kd [6]: 0.093 nM
B1: H240-FA009/H240-FB015/L73-k0 (antibody)
chain 1: B3 chain 1 with T198I, K271E
chain 2: B3 chain 2 with S137G, N191S, F192L, T198I, D202N, T213K, E287K
chain 3: B3 chain 3

Kd [1]: 86 nM | Kd [2]: 1.3 nM | Kd [3]: 5 nM | Kd [4]: 280 nM | Kd [5]: 1400 nM | Kd [6]: 0.1 nM
B2: H240-FA012/H240-FB056/L73-k0 (antibody)
chain 1: B3 chain 1 with T198I
chain 2: B3 chain 2 with S137G, K146E, N191S, F192L, T198I, T213K
chain 3: B3 chain 3

Kd [1]: 64 nM | Kd [2]: 1.1 nM | Kd [3]: 3.9 nM | Kd [4]: 250 nM | Kd [5]: 1400 nM | Kd [6]: 0.12 nM
B4: H240-FA009/H240-FB020/L73-k0 (antibody)
chain 1: B3 chain 1 with T198I, K271E
chain 2: B3 chain 2 with E136G, S137G, K146E, N191S, F192L, T198I, D202N, T213K, E287K
chain 3: B3 chain 3

Kd [1]: 110 nM | Kd [2]: 1.5 nM | Kd [3]: 6.3 nM | Kd [4]: 350 nM | Kd [5]: 1700 nM | Kd [6]: 0.076 nM
B5: H240-FA012/H240-FB001/L73-k0 (antibody)
chain 1: B3 chain 1 with T198I
chain 2: B3 chain 2 with E136G, S137G, N191S, F192L, T198I, D202N, T213K, E287K
chain 3: B3 chain 3

Kd [1]: 69 nM | Kd [2]: 1.1 nM | Kd [3]: 3.4 nM | Kd [4]: 270 nM | Kd [5]: 1200 nM | Kd [6]: 0.079 nM
B6: H240-FA020/H240-FB082/L73-k0 (antibody)
chain 1: B3 chain 1 with K271E, M357K
chain 2: B3 chain 2 with E136G, S137E, K146E, N191S, F192L, T198I, D202N, T213K, N383E
chain 3: B3 chain 3

From patent US10766960 (dated 2020)
